In the test the target is T1, His-AKINβ1 fusion protein (Arabidopsis thaliana, UniProt Q84VQ1 1-283).
T1 construct: AKINβ1, β regulatory subunit of SnRK1, Arabidopsis thaliana, AT5G21170; also called pET-AKINβ1; His-tagged AKINβ1
T1 sequence (looked up): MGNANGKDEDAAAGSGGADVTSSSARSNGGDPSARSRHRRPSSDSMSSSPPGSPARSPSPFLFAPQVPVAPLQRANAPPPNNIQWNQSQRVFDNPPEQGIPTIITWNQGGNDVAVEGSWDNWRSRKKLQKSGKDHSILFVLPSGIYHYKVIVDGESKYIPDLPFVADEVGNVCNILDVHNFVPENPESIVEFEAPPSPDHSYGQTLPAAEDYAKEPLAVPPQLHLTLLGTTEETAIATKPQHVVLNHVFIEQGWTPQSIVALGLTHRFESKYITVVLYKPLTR
As to the kind of experiment: pull-down; about 5 µg GST-CBL1 immobilised on Glutathione-Sepharose 4B beads, incubated with His-AKINβ1 overnight at 4°C, washed five times with ice-cold PBS, Western blot with anti-His antibody. As to conditions: both partners purified.

These results are taken from publication PMC3577912, “A Novel Role for Arabidopsis CBL1 in Affecting Plant Responses to Glucose and Gibberellin during Germination and Seedling Development” (PLoS ONE, 2013).

B1: GST-CBL1 fusion protein (natural protein)
chain: not shown
notes: Calcineurin B-like protein 1 (CBL1), Arabidopsis thaliana, AT4G17615; also called pGEX-CBL1; glutathione S-transferase (GST)-CBL1; source: E. coli BL21 (DE3), purified (Glutathione Sepharose)
As to B1, the binding result is reported as “binds”.
